Assay results taken from PMC7954794 (2021).

B1: S. cerevisiae Abp1 (full length; SH3 domain 535-592 mutated) / Hua2 (parent complex)
chain 1: MALEPIDYTTHSREIDAEYLKIVRGSDPDTTWLIISPNAKKEYEPESTGSSFHDFLQLFDETKVQYGLARVSPPGSDVEKIIIIGWCPDSAPLKTRASFAANFAAVANNLFKGYHVQVTARDEDDLDENELLMKISNAAGARYSIQTSSKQQGKASTPPVKKSFTPSKSPAPVSKKEPVKTPSPAPAAKISSRVNDNNDDDDWNEPELKERDFDQAPLKPNQSSYKPIGKIDLQKVIAEEKAKEDPRLVQKPTAAGSKIDPSSDIANLKNESKLKRDSEFNSFLGTTKPPSMTESSLKNDDDKVIKGFRNEKSPAQLWAERKAKQNSGNAETKAEAPKPEVPEDEPEGEPDVKDLKSKFEGLAASEKEEEEMENKFAPPPKKSEPTIISPKPFSKPQEPVKAEEAEQPKTDYKKIGNPLPGMHIEADNEEEPEENDDDWDDDEDEAAQPPLPSRNVASGAPVQKEEPEQEEIAPSLPSRNSIPAPKQEEAPEQAPEEEIEEEAEEAAPQLPSRSSAAPPPPPRRATPEKKPKENPWATAEYDYDAAEDNELTFVENDKIINIEFVDDDWWLGELEKDGSKGLFPSNYVSLGN
chain 2: MQQTKFGKMYLDHDSVVEYSEDEIVEADRITLGYKKRLSMIENQMRHLLEDFSLDVQQIEPILADLQKYYDAFLQLLQKRNKSLQCKRSTHQPVPSPMNSQTSTNAKVNLSGKLMKFQLNSVQKFDEENILRILQNKIEFEHYFQIDKGKKQKVLLLAVYQCLNGPTRLHKVLNIEGIIHNNSIRTILGKQVSSSKWTVFLYDVKLVLLAHRQDVPNLETSKMIVRYGDLFPCALYFKDHTAY

Variants of: B1
Experiment: DHFR protein-fragment complementation in yeast (Abp1-DHFR F[1,2] x partner-DHFR F[3]), deep mutational scanning, second methotrexate selection vs reference; S. cerevisiae, DHFR-PCA selection in liquid with methotrexate at 30 C, two 72 h selections (the score uses the second); reference = the pre-selection culture

Row | screen value | Variant
1 | 2 DMS score: mean over two replicates of log2(f_test/f_ref + 0.5)/ln 2, minus the synonymous-codon median (not a log2 … | chain 1 N586S
2 | -1.03 DMS score: mean over two replicates of log2(f_test/f_ref + 0.5)/ln 2, minus the synonymous-codon median (not a log2 … | chain 1 N586Q
3 | -1.53 DMS score: mean over two replicates of log2(f_test/f_ref + 0.5)/ln 2, minus the synonymous-codon median (not a log2 … | chain 1 N586E
4 | 0.632 DMS score: mean over two replicates of log2(f_test/f_ref + 0.5)/ln 2, minus the synonymous-codon median (not a log2 … | chain 1 N586I
5 | 1.83 DMS score: mean over two replicates of log2(f_test/f_ref + 0.5)/ln 2, minus the synonymous-codon median (not a log2 … | chain 1 N586T
6 | 1.04 DMS score: mean over two replicates of log2(f_test/f_ref + 0.5)/ln 2, minus the synonymous-codon median (not a log2 … | chain 1 N586V
7 | -1.55 DMS score: mean over two replicates of log2(f_test/f_ref + 0.5)/ln 2, minus the synonymous-codon median (not a log2 … | chain 1 N586K
8 | -0.138 DMS score: mean over two replicates of log2(f_test/f_ref + 0.5)/ln 2, minus the synonymous-codon median (not a log2 … | chain 1 W569Y
9 | 0.0686 DMS score: mean over two replicates of log2(f_test/f_ref + 0.5)/ln 2, minus the synonymous-codon median (not a log2 … | chain 1 P535F
10 | -0.0677 DMS score: mean over two replicates of log2(f_test/f_ref + 0.5)/ln 2, minus the synonymous-codon median (not a log2 … | chain 1 P535G
11 | 0.729 DMS score: mean over two replicates of log2(f_test/f_ref + 0.5)/ln 2, minus the synonymous-codon median (not a log2 … | chain 1 P535N
12 | 1.46 DMS score: mean over two replicates of log2(f_test/f_ref + 0.5)/ln 2, minus the synonymous-codon median (not a log2 … | chain 1 P535C
13 | 0.578 DMS score: mean over two replicates of log2(f_test/f_ref + 0.5)/ln 2, minus the synonymous-codon median (not a log2 … | chain 1 V565T
14 | -0.52 DMS score: mean over two replicates of log2(f_test/f_ref + 0.5)/ln 2, minus the synonymous-codon median (not a log2 … | chain 1 L590V
15 | 1.03 DMS score: mean over two replicates of log2(f_test/f_ref + 0.5)/ln 2, minus the synonymous-codon median (not a log2 … | chain 1 S585C
16 | -0.67 DMS score: mean over two replicates of log2(f_test/f_ref + 0.5)/ln 2, minus the synonymous-codon median (not a log2 … | chain 1 S585T
17 | 0.746 DMS score: mean over two replicates of log2(f_test/f_ref + 0.5)/ln 2, minus the synonymous-codon median (not a log2 … | chain 1 S585M
18 | -2.72 DMS score: mean over two replicates of log2(f_test/f_ref + 0.5)/ln 2, minus the synonymous-codon median (not a log2 … | chain 1 S585P

Row | screen value | Variant
19 | 1.22 DMS score: mean over two replicates of log2(f_test/f_ref + 0.5)/ln 2, minus the synonymous-codon median (not a log2 … | chain 1 S589N
20 | 0.074 DMS score: mean over two replicates of log2(f_test/f_ref + 0.5)/ln 2, minus the synonymous-codon median (not a log2 … | chain 1 S589A
21 | -0.0692 DMS score: mean over two replicates of log2(f_test/f_ref + 0.5)/ln 2, minus the synonymous-codon median (not a log2 … | chain 1 S589M
22 | 0.37 DMS score: mean over two replicates of log2(f_test/f_ref + 0.5)/ln 2, minus the synonymous-codon median (not a log2 … | chain 1 S589K
23 | 0.593 DMS score: mean over two replicates of log2(f_test/f_ref + 0.5)/ln 2, minus the synonymous-codon median (not a log2 … | chain 1 S589V
24 | 1.15 DMS score: mean over two replicates of log2(f_test/f_ref + 0.5)/ln 2, minus the synonymous-codon median (not a log2 … | chain 1 S589E
25 | 0.723 DMS score: mean over two replicates of log2(f_test/f_ref + 0.5)/ln 2, minus the synonymous-codon median (not a log2 … | chain 1 S589L
26 | 0.802 DMS score: mean over two replicates of log2(f_test/f_ref + 0.5)/ln 2, minus the synonymous-codon median (not a log2 … | chain 1 S589I
27 | -0.244 DMS score: mean over two replicates of log2(f_test/f_ref + 0.5)/ln 2, minus the synonymous-codon median (not a log2 … | chain 1 N556Q
28 | -0.0705 DMS score: mean over two replicates of log2(f_test/f_ref + 0.5)/ln 2, minus the synonymous-codon median (not a log2 … | chain 1 N556E
29 | -0.0258 DMS score: mean over two replicates of log2(f_test/f_ref + 0.5)/ln 2, minus the synonymous-codon median (not a log2 … | chain 1 N556F
30 | 0.377 DMS score: mean over two replicates of log2(f_test/f_ref + 0.5)/ln 2, minus the synonymous-codon median (not a log2 … | chain 1 N556R
31 | 0.246 DMS score: mean over two replicates of log2(f_test/f_ref + 0.5)/ln 2, minus the synonymous-codon median (not a log2 … | chain 1 V554G
32 | 0.94 DMS score: mean over two replicates of log2(f_test/f_ref + 0.5)/ln 2, minus the synonymous-codon median (not a log2 … | chain 1 V554Q
33 | -0.235 DMS score: mean over two replicates of log2(f_test/f_ref + 0.5)/ln 2, minus the synonymous-codon median (not a log2 … | chain 1 S579E
34 | -0.58 DMS score: mean over two replicates of log2(f_test/f_ref + 0.5)/ln 2, minus the synonymous-codon median (not a log2 … | chain 1 S579M
35 | -0.943 DMS score: mean over two replicates of log2(f_test/f_ref + 0.5)/ln 2, minus the synonymous-codon median (not a log2 … | chain 1 S579L

Further lines, the variant ahead of its results:

Row | Variant | screen value
36 | chain 1 D577S | 0.3 DMS score: mean over two replicates of log2(f_test/f_ref + 0.5)/ln 2, minus the synonymous-codon median (not a log2 …
37 | chain 1 D577T | -0.226 DMS score: mean over two replicates of log2(f_test/f_ref + 0.5)/ln 2, minus the synonymous-codon median (not a log2 …
38 | chain 1 E547Q | -2.26 DMS score: mean over two replicates of log2(f_test/f_ref + 0.5)/ln 2, minus the synonymous-codon median (not a log2 …
39 | chain 1 E547K | -2.17 DMS score: mean over two replicates of log2(f_test/f_ref + 0.5)/ln 2, minus the synonymous-codon median (not a log2 …
40 | chain 1 E547Y | -0.85 DMS score: mean over two replicates of log2(f_test/f_ref + 0.5)/ln 2, minus the synonymous-codon median (not a log2 …
41 | chain 1 E575D | -0.0843 DMS score: mean over two replicates of log2(f_test/f_ref + 0.5)/ln 2, minus the synonymous-codon median (not a log2 …
42 | chain 1 E575S | -0.146 DMS score: mean over two replicates of log2(f_test/f_ref + 0.5)/ln 2, minus the synonymous-codon median (not a log2 …
43 | chain 1 E575K | 0.0377 DMS score: mean over two replicates of log2(f_test/f_ref + 0.5)/ln 2, minus the synonymous-codon median (not a log2 …
44 | chain 1 E575H | 0.233 DMS score: mean over two replicates of log2(f_test/f_ref + 0.5)/ln 2, minus the synonymous-codon median (not a log2 …
45 | chain 1 L582K | -2.94 DMS score: mean over two replicates of log2(f_test/f_ref + 0.5)/ln 2, minus the synonymous-codon median (not a log2 …
46 | chain 1 L582M | -2.34 DMS score: mean over two replicates of log2(f_test/f_ref + 0.5)/ln 2, minus the synonymous-codon median (not a log2 …
47 | chain 1 A546Q | 1.19 DMS score: mean over two replicates of log2(f_test/f_ref + 0.5)/ln 2, minus the synonymous-codon median (not a log2 …
48 | chain 1 A546Y | -0.447 DMS score: mean over two replicates of log2(f_test/f_ref + 0.5)/ln 2, minus the synonymous-codon median (not a log2 …
49 | chain 1 A546R | -1.4 DMS score: mean over two replicates of log2(f_test/f_ref + 0.5)/ln 2, minus the synonymous-codon median (not a log2 …
50 | chain 1 A546F | -0.502 DMS score: mean over two replicates of log2(f_test/f_ref + 0.5)/ln 2, minus the synonymous-codon median (not a log2 …
51 | chain 1 L590M | -0.242 DMS score: mean over two replicates of log2(f_test/f_ref + 0.5)/ln 2, minus the synonymous-codon median (not a log2 …
52 | chain 1 L590I | 0.43 DMS score: mean over two replicates of log2(f_test/f_ref + 0.5)/ln 2, minus the synonymous-codon median (not a log2 …
53 | chain 1 D542H | -0.15 DMS score: mean over two replicates of log2(f_test/f_ref + 0.5)/ln 2, minus the synonymous-codon median (not a log2 …
54 | chain 1 D542T | 0.719 DMS score: mean over two replicates of log2(f_test/f_ref + 0.5)/ln 2, minus the synonymous-codon median (not a log2 …
55 | chain 1 D542N | 0.0633 DMS score: mean over two replicates of log2(f_test/f_ref + 0.5)/ln 2, minus the synonymous-codon median (not a log2 …

Row | Variant | screen value
56 | chain 1 D542F | -0.772 DMS score: mean over two replicates of log2(f_test/f_ref + 0.5)/ln 2, minus the synonymous-codon median (not a log2 …
57 | chain 1 D542R | -0.244 DMS score: mean over two replicates of log2(f_test/f_ref + 0.5)/ln 2, minus the synonymous-codon median (not a log2 …
58 | chain 1 E563K | -0.922 DMS score: mean over two replicates of log2(f_test/f_ref + 0.5)/ln 2, minus the synonymous-codon median (not a log2 …
59 | chain 1 E563S | -0.411 DMS score: mean over two replicates of log2(f_test/f_ref + 0.5)/ln 2, minus the synonymous-codon median (not a log2 …
60 | chain 1 E563Q | -0.159 DMS score: mean over two replicates of log2(f_test/f_ref + 0.5)/ln 2, minus the synonymous-codon median (not a log2 …
61 | chain 1 L574I | -0.989 DMS score: mean over two replicates of log2(f_test/f_ref + 0.5)/ln 2, minus the synonymous-codon median (not a log2 …
62 | chain 1 L574C | -0.496 DMS score: mean over two replicates of log2(f_test/f_ref + 0.5)/ln 2, minus the synonymous-codon median (not a log2 …
63 | chain 1 L574T | -0.934 DMS score: mean over two replicates of log2(f_test/f_ref + 0.5)/ln 2, minus the synonymous-codon median (not a log2 …
64 | chain 1 D566E | -1.31 DMS score: mean over two replicates of log2(f_test/f_ref + 0.5)/ln 2, minus the synonymous-codon median (not a log2 …
65 | chain 1 D566Y | -2.1 DMS score: mean over two replicates of log2(f_test/f_ref + 0.5)/ln 2, minus the synonymous-codon median (not a log2 …
66 | chain 1 D566H | -2.26 DMS score: mean over two replicates of log2(f_test/f_ref + 0.5)/ln 2, minus the synonymous-codon median (not a log2 …
67 | chain 1 K558V | 0.774 DMS score: mean over two replicates of log2(f_test/f_ref + 0.5)/ln 2, minus the synonymous-codon median (not a log2 …
68 | chain 1 K558M | -0.491 DMS score: mean over two replicates of log2(f_test/f_ref + 0.5)/ln 2, minus the synonymous-codon median (not a log2 …
69 | chain 1 D568E | -1.5 DMS score: mean over two replicates of log2(f_test/f_ref + 0.5)/ln 2, minus the synonymous-codon median (not a log2 …
70 | chain 1 D568V | -2.62 DMS score: mean over two replicates of log2(f_test/f_ref + 0.5)/ln 2, minus the synonymous-codon median (not a log2 …
71 | chain 1 D568W | -2.95 DMS score: mean over two replicates of log2(f_test/f_ref + 0.5)/ln 2, minus the synonymous-codon median (not a log2 …
72 | chain 1 L571I | -0.705 DMS score: mean over two replicates of log2(f_test/f_ref + 0.5)/ln 2, minus the synonymous-codon median (not a log2 …
73 | chain 1 L571N | -0.368 DMS score: mean over two replicates of log2(f_test/f_ref + 0.5)/ln 2, minus the synonymous-codon median (not a log2 …
74 | chain 1 L571H | 0.744 DMS score: mean over two replicates of log2(f_test/f_ref + 0.5)/ln 2, minus the synonymous-codon median (not a log2 …
75 | chain 1 L571S | -0.425 DMS score: mean over two replicates of log2(f_test/f_ref + 0.5)/ln 2, minus the synonymous-codon median (not a log2 …
